Laboratory results: article PMC6390181, “Ovalbumin Epitope [sequence] Self-Assembles into a Supramolecular Hydrogel” (Scientific Reports, 2019)

Target: the molecule itself
Experiment: hydrogel formation (visual inspection, rheology); purified peptide dissolved in Millipore water at 0.5% or 1% (w/v); room temperature; gel seen at once (1%) or after overnight incubation (0.5%); rheology after 24 h; the analogue was followed for 72 h

B1: OVA257-264 octapeptide SIINFEKL (peptide)
peptide: SIINFEKL
notes: ovalbumin (OVA), residues 257-264; Assembles into nanofibrils and a hydrogel; the number of peptides in an assembly is not defined; source: synthetic peptide (Fmoc-SPPS, purified by RP-HPLC)
binding result: binds
